The text below walks through data of patent publication US20060246519A1 (UTI LIMITED PARTNERSHIP, published 2006).

The target in data set [1] is T1, biotin-conjugated bovine serum albumin (bovine, UniProt P02769 25-607).
T1 construct: Immobilised on a CM5 sensor chip; also called biotinylated bovine serum albumin (BSA)
Nature of the data set: SPR (BIAcoreX), biotin-conjugated BSA immobilised on CM5 chip, mutein in solution. On the procedure:
(§1) The kinetic parameters (both on- and off-rates for interaction with biotin) of streptavidin muteins were determined in real time using the surface plasmon resonance based BIAcoreX biosensor. Biotin-conjugated bovine serum albumin immobilized on CM5 sensor chip was used to study the reversibility of biotin binding (Qureshi, 2001).
(In SPR one partner is held on a chip, and binding of the other changes the refractive index at the surface.)

Data set [2] deals with the molecule itself. Nature of the data set: SDS-PAGE/Western blot of non-boiled culture supernatant; self-association of subunits.
For data set [3], the target named is T1, biotin-conjugated bovine serum albumin. Put plainly: SPR (BIAcoreX), biotin-conjugated BSA immobilised on CM5 chip, mutein in solution; Kd = kd/ka. On the procedure:
as §1

Data set [4] concerns the molecule itself. Put plainly: SDS-PAGE/Western blot of non-boiled culture supernatant, 20 uM biotin in medium; self-association of subunits. The method, then: FIG. 3: Western blot analysis of cell culture supernatants from B. subtilis strains producing streptavidin muteins carrying a single mutation. 15 μl of non-boiled sample of culture supernatant was loaded to each lane. Samples on the left set were collected from B. subtilis strains cultured in super-rich medium without additional supplement of biotin. Samples on the right set were collected from B. subtilis strains cultured in super-rich medium with additional supplementation of biotin (20 μM). The blot was probed with polyclonal antibodies against streptavidin and developed using 4-chloro-1-napthol (Bio-Rad) as the colour development agent. […] M, molecular weight markers; wt, wild type streptavidin.
FIG. 4: Analysis of culture supernatants from B. subtilis strains producing streptavidin muteins carrying different combinations of mutations. All these strains were cultivated in super-rich medium supplemented with biotin (20 μM). The 15 μl of non-boiled samples of culture supernatants were loaded. FIG. 4A. Coomassie blue stained SDS-polyacrylamide gel. Bands corresponding to tetrameric and monomeric streptavidin are marked by an asterisk and an arrowhead, respectively. FIG. 4B. Western blot probed with polyclonal antibodies against streptavidin. […]
(Immunoblotting shows a protein as a band on a membrane.)

T1 sequence (P02769 25-607 limits assumed): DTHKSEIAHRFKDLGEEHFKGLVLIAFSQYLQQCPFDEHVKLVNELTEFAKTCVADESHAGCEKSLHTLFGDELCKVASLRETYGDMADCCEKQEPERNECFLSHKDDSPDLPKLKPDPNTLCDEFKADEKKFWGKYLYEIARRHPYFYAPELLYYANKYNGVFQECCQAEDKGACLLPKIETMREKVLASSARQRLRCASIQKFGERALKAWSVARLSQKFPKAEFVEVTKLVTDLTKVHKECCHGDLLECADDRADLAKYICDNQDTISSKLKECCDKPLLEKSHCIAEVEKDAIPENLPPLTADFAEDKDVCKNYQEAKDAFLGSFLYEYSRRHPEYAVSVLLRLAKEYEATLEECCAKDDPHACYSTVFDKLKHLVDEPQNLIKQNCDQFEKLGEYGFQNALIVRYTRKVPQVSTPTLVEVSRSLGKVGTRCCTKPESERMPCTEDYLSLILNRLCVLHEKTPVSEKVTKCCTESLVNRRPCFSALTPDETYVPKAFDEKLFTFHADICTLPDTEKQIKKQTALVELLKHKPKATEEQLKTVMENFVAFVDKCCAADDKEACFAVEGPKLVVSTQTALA

B1: streptavidin mutein M4 (T76R, V125R, V55T, L109T), secreted by B. subtilis (other)
chain: DPSKDSKAQVSAAEAGITGTWYNQLGSTFIVTAGADGALTGTYESAVGNAESRYTLTGRYDSAPATDGSGTALGWRVAWKNNYRNAHSATTWSGQYVGGAEARINTQWTLTSGTTEANAWKSTLRGHDTFTKVKPSAASIDAAKKAGVNNGNPLDAVQQ
notes: Monomeric in solution; also called M4 mutein
As for B1, in data set [1], the koff stood at 0.00339 s⁻¹ and the on-rate (kon) is 18000 M⁻¹ s⁻¹. Moreover, the “% tetramer, no additional biotin” value in data set [2] came out at 0%. In addition, in data set [3], the dissociation constant (Kd) was determined as 187 nM. In addition, the “% tetramer, with additional biotin” value in data set [4] worked out at 0%.

Usually koff stands for a measure of how fast the partners let go of each other. A lower koff goes with a long-lived complex. As a reminder, the kon is the rate constant with which the complex forms. For orientation: Kd means the concentration at which binding is half-saturated. Low values mean a tighter complex, high ones a looser complex.
